In IntAct's records for PubMed 17451412:

Experiments:
wasl_rat Wasl = wasl_rat Wasl (UniProt O08816)
tir_eco57 tir = tir_eco57 tir (UniProt Q7DB77)
Sequence of tir_eco57 tir (Q7DB77 whole entry): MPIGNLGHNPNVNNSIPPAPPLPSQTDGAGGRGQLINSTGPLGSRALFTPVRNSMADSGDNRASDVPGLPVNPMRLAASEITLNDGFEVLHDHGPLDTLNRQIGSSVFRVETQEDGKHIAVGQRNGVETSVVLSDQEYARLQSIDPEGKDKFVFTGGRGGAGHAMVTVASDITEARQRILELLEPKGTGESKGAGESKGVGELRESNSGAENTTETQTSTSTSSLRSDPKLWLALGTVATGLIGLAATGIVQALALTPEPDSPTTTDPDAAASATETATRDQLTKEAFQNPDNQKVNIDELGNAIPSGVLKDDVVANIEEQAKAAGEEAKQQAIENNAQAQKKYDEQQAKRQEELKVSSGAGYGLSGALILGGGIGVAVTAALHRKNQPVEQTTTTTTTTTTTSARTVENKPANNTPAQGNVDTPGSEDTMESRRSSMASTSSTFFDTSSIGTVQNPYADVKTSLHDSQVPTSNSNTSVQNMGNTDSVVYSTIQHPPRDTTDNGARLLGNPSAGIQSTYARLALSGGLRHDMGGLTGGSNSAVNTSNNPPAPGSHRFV

Sequence of wasl_rat Wasl (O08816 whole entry): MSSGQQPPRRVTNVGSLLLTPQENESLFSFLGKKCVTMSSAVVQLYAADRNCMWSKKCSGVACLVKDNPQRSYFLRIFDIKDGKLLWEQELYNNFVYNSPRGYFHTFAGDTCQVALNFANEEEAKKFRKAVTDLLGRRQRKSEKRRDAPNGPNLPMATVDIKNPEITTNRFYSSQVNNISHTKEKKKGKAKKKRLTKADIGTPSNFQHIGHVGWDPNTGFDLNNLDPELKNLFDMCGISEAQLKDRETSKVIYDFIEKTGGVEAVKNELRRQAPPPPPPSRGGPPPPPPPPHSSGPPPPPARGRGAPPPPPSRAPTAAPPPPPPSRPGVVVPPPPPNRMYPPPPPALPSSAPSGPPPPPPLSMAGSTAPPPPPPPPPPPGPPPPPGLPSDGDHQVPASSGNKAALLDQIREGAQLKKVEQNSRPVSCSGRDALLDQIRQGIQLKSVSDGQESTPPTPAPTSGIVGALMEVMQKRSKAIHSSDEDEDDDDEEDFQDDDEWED
Sequence of Src substrate cortactin (Mus musculus), Q60598 Y421D;Y466D (Q60598 whole entry Y421D/Y466D): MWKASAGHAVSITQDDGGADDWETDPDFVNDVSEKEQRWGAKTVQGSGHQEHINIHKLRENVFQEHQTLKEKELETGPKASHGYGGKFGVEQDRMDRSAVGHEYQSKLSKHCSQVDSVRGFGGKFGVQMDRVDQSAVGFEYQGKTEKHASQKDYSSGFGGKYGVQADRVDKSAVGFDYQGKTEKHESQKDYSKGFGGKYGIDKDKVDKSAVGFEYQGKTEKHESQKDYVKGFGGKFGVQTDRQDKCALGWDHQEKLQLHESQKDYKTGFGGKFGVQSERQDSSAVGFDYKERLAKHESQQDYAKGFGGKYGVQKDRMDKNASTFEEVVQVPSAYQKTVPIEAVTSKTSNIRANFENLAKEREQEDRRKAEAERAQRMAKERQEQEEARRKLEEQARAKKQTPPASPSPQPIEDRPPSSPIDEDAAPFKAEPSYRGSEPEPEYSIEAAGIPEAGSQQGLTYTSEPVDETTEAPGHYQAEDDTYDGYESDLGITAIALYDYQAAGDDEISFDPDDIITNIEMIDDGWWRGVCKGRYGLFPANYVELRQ
Sequence of Src substrate cortactin (Mus musculus), Q60598 S405D;S418D (Q60598 whole entry S405D/S418D): as the sequence (Q60598 whole entry Y421D/Y466D) above, with S405D, S418D, D421Y, D466Y counted along it
Sequence of Src substrate cortactin (Mus musculus), Q60598 W525K (Q60598 whole entry W525K): as the sequence (Q60598 whole entry Y421D/Y466D) above, with D421Y, D466Y, W525K counted along it

Substance | effect of a mutation on the interaction (wasl_rat Wasl) | effect of a mutation on the interaction (tir_eco57 tir)
Src substrate cortactin (Mus musculus), Q60598 S405D;S418D | disrupting interaction | with no effect
Src substrate cortactin (Mus musculus), Q60598 W525K | with no effect | 
Src substrate cortactin (Mus musculus), Q60598 Y421D;Y466D | increasing interaction | increasing interaction
